Source: IntAct's records for PubMed 25588830

B1: Septin-12 (Homo sapiens), Q8IYM1 (parent)
chain: MDPLRRSPSPCLSSQPSSPSTPPCEMLGPVGIEAVLDQLKIKAMKMGFEFNIMVVGQSGLGKSTMVNTLFKSKVWKSNPPGLGVPTPQTLQLHSLTHVIEEKGVKLKLTVTDTPGFGDQINNDNCWDPILGYINEQYEQYLQEEILITRQRHIPDTRVHCCVYFVPPTGHCLRPLDIEFLQRLCRTVNVVPVIARADSLTMEEREAFRRRIQQNLRTHCIDVYPQMCFDEDINDKILNSKLRDRIPFAVVGADQEHLVNGRCVLGRKTKWGIIEVENMAHCEFPLLRDLLIRSHLQDLKDITHNIHYENYRVIRLNESHLLPRGPGWVNLAPASPGQLTTPRTFKVCRGAHDDSDDEF
partner: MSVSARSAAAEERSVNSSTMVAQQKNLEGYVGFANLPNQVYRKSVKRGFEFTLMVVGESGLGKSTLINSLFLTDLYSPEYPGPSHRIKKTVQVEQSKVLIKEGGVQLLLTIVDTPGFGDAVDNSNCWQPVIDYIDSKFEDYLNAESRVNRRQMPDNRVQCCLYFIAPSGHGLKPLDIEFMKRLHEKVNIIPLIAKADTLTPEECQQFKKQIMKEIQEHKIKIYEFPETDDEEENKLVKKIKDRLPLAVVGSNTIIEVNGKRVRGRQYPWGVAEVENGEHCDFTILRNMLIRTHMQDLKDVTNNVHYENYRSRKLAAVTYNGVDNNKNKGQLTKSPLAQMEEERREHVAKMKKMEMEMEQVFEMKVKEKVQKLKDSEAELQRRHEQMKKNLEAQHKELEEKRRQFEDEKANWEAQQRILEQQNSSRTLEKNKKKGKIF
B2: Septin-12 (Homo sapiens), Q8IYM1 (parent)
chain: B1 chain
partner: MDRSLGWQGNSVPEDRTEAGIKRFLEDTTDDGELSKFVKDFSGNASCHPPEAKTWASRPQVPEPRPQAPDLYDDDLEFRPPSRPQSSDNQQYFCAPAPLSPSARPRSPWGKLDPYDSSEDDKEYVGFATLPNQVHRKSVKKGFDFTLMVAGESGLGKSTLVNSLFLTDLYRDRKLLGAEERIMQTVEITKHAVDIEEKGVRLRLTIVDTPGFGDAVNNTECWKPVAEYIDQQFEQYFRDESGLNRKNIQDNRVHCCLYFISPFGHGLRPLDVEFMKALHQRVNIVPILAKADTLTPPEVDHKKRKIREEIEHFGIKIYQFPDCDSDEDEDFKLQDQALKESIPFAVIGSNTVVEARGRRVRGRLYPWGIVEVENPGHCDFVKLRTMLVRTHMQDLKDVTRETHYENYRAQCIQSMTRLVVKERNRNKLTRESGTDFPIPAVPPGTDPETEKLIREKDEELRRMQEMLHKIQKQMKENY
B3: Septin-12 (Homo sapiens), Q8IYM1 (parent)
chain: B1 chain
partner: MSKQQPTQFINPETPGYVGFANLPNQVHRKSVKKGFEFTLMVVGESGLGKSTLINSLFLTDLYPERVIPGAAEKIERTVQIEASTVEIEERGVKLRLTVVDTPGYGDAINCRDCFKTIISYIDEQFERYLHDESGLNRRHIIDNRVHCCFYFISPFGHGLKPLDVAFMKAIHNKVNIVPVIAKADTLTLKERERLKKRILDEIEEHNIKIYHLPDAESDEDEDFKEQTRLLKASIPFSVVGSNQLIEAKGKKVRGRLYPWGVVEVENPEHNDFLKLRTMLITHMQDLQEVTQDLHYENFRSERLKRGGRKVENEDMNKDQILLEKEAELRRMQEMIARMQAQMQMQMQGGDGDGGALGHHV
B4: Septin-12 (Homo sapiens), Q8IYM1 (parent)
chain: B1 chain
partner: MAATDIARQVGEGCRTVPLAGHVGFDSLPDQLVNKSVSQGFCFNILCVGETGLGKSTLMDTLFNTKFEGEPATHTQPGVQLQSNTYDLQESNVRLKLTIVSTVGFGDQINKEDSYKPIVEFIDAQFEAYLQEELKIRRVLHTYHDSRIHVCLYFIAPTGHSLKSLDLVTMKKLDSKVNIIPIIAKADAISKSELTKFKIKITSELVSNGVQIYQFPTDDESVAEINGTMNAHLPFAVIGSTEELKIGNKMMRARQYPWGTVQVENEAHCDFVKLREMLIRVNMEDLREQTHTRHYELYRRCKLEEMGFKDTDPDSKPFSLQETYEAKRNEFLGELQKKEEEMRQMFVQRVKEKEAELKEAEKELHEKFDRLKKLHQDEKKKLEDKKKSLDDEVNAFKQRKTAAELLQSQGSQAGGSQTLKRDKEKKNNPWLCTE

Variants of: B1
Conditions: with sept7_human SEPTIN7, Q16181

Variant | effect of a mutation on the interaction
MDPLRRSPSPCLSSQPSSPSTPPCEMLGPVGIEAVLDQLKIKAMKMGFEFNIMVVGQSGLGKSTMVNTLFKSKVWKSNPPGLGVPTPQMLQLHSLTHVIEEKGVKLKLTVTDTPGFGDQINNDNCWDPILGYINEQYEQYLQEEILITRQRHIPDTRVHCCVYFVPPTGHCLRPLDIEFLQRLCRTVNVVPVIARADSLTMEEREAFRRRIQQNLRTHCIDVYPQMCFDEDINDKILNSKLRDRIPFAVVGADQEHLVNGRCVLGRKTKWGIIEVENMAHCEFPLLRDLLIRSHLQDLKDITHNIHYENYRVIRLNESHLLPRGPGWVNLAPASPGQLTTPRTFKVCRGAHDDSDDEF [T89M] | disrupting interaction strength
MDPLRRSPSPCLSSQPSSPSTPPCEMLGPVGIEAVLDQLKIKAMKMGFEFNIMVVGQSGLGKSTMVNTLFKSKVWKSNPPGLGVPTPQTLQLHSLTHVIEEKGVKLKLTVTDTPGFGDQINNDNCWDPILGYINEQYEQYLQEEILITRQRHIPDTRVHCCVYFVPPTGHCLRPLDIEFLQRLCRTVNVVPVIARANSLTMEEREAFRRRIQQNLRTHCIDVYPQMCFDEDINDKILNSKLRDRIPFAVVGADQEHLVNGRCVLGRKTKWGIIEVENMAHCEFPLLRDLLIRSHLQDLKDITHNIHYENYRVIRLNESHLLPRGPGWVNLAPASPGQLTTPRTFKVCRGAHDDSDDEF [D197N] | disrupting interaction strength

Variants of: B1
Conditions: with sept7_human SEPTIN7, Q16181
Remark: another data set of the same source

Variant | effect of a mutation on the interaction
MDPLRRSPSPCLSSQPSSPSTPPCEMLGPVGIEAVLDQLKIKAMKMGFEFNIMVVGQSGLGKSTMVNTLFKSKVWKSNPPGLGVPTPQMLQLHSLTHVIEEKGVKLKLTVTDTPGFGDQINNDNCWDPILGYINEQYEQYLQEEILITRQRHIPDTRVHCCVYFVPPTGHCLRPLDIEFLQRLCRTVNVVPVIARADSLTMEEREAFRRRIQQNLRTHCIDVYPQMCFDEDINDKILNSKLRDRIPFAVVGADQEHLVNGRCVLGRKTKWGIIEVENMAHCEFPLLRDLLIRSHLQDLKDITHNIHYENYRVIRLNESHLLPRGPGWVNLAPASPGQLTTPRTFKVCRGAHDDSDDEF [T89M] | decreasing interaction
MDPLRRSPSPCLSSQPSSPSTPPCEMLGPVGIEAVLDQLKIKAMKMGFEFNIMVVGQSGLGKSTMVNTLFKSKVWKSNPPGLGVPTPQTLQLHSLTHVIEEKGVKLKLTVTDTPGFGDQINNDNCWDPILGYINEQYEQYLQEEILITRQRHIPDTRVHCCVYFVPPTGHCLRPLDIEFLQRLCRTVNVVPVIARANSLTMEEREAFRRRIQQNLRTHCIDVYPQMCFDEDINDKILNSKLRDRIPFAVVGADQEHLVNGRCVLGRKTKWGIIEVENMAHCEFPLLRDLLIRSHLQDLKDITHNIHYENYRVIRLNESHLLPRGPGWVNLAPASPGQLTTPRTFKVCRGAHDDSDDEF [D197N] | disrupting interaction

Variants of: B2
Conditions: with sept4_human SEPTIN4, O43236

Variant | effect of a mutation on the interaction
MDPLRRSPSPCLSSQPSSPSTPPCEMLGPVGIEAVLDQLKIKAMKMGFEFNIMVVGQSGLGKSTMVNTLFKSKVWKSNPPGLGVPTPQTLQLHSLTHVIEEKGVKLKLTVTDTPGFGDQINNDNCWDPILGYINEQYEQYLQEEILITRQRHIPDTRVHCCVYFVPPTGHCLRPLDIEFLQRLCRTVNVVPVIARANSLTMEEREAFRRRIQQNLRTHCIDVYPQMCFDEDINDKILNSKLRDRIPFAVVGADQEHLVNGRCVLGRKTKWGIIEVENMAHCEFPLLRDLLIRSHLQDLKDITHNIHYENYRVIRLNESHLLPRGPGWVNLAPASPGQLTTPRTFKVCRGAHDDSDDEF [D197N] | disrupting interaction

Variants of: B3
Conditions: with sept2_human SEPTIN2, Q15019

Variant | effect of a mutation on the interaction
MDPLRRSPSPCLSSQPSSPSTPPCEMLGPVGIEAVLDQLKIKAMKMGFEFNIMVVGQSGLGKSTMVNTLFKSKVWKSNPPGLGVPTPQTLQLHSLTHVIEEKGVKLKLTVTDTPGFGDQINNDNCWDPILGYINEQYEQYLQEEILITRQRHIPDTRVHCCVYFVPPTGHCLRPLDIEFLQRLCRTVNVVPVIARANSLTMEEREAFRRRIQQNLRTHCIDVYPQMCFDEDINDKILNSKLRDRIPFAVVGADQEHLVNGRCVLGRKTKWGIIEVENMAHCEFPLLRDLLIRSHLQDLKDITHNIHYENYRVIRLNESHLLPRGPGWVNLAPASPGQLTTPRTFKVCRGAHDDSDDEF [D197N] | disrupting interaction

Variants of: B4
Conditions: with sept6_human SEPTIN6, Q14141

Variant | effect of a mutation on the interaction
MDPLRRSPSPCLSSQPSSPSTPPCEMLGPVGIEAVLDQLKIKAMKMGFEFNIMVVGQSGLGKSTMVNTLFKSKVWKSNPPGLGVPTPQTLQLHSLTHVIEEKGVKLKLTVTDTPGFGDQINNDNCWDPILGYINEQYEQYLQEEILITRQRHIPDTRVHCCVYFVPPTGHCLRPLDIEFLQRLCRTVNVVPVIARANSLTMEEREAFRRRIQQNLRTHCIDVYPQMCFDEDINDKILNSKLRDRIPFAVVGADQEHLVNGRCVLGRKTKWGIIEVENMAHCEFPLLRDLLIRSHLQDLKDITHNIHYENYRVIRLNESHLLPRGPGWVNLAPASPGQLTTPRTFKVCRGAHDDSDDEF [D197N] | disrupting interaction
